The results in this text go back to article PMC3570589.

Assay in all cases: ITC
The target of assay [1] is H3_((27–46))K36me3 peptide (UniProt P68431).
Assay [2] concerns the target H3_((28–43))K36me3 peptide (UniProt P68431).
Assay [3] has as its target H3_((28–43))K36me2 peptide (UniProt P68431).
For assay [4], the target named is H3_((28–43))K36me1 peptide (UniProt P68431).

Sequence of PHF1 Tudor domain protein, wild-type (ITC and silver-stained peptide pull-downs) (O43189 29-86): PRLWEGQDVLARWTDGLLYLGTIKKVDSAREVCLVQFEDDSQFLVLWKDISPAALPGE

Regarding “PHF19 Tudor domain protein, wild-type (from UniProt Q5T6S3 40-93) (domain or fragment)”, the Kd in assay [1] lay within 5 to 7 µM.
On to “PHF1 Tudor domain protein, W41A (from UniProt O43189-1 29-86) (domain or fragment)”, for which, in assay [2], the Ka was found to be 33200 M⁻¹, the Kd amounted to 30.1 µM, the dH was -1.35 kcal/mol and the stoichiometry N was 0.68.
As for “PHF1 Tudor domain protein, E66K (from UniProt O43189-1 29-86) (domain or fragment)”, in assay [2], the Ka was 43900 M⁻¹, the Kd was 22.8 µM and the dH was -6.47 kcal/mol.
In assay [2], “PHF1 Tudor domain protein, wild-type (ITC and silver-stained peptide pull-downs) (from UniProt O43189-1 29-86) (domain or fragment)” had a Ka of 238000 M⁻¹, a dissociation constant (Kd) of 4.2 µM, a dH of -5.63 kcal/mol and a stoichiometry N of 0.79. In assay [3], this substance had a Ka of 51800 M⁻¹, a Kd of 19.3 µM, a dH of -3.99 kcal/mol and a stoichiometry N of 0.94. Further, in assay [4], the dH was -0.817 kcal/mol and the stoichiometry N was 0.7.
